{"source": "patent US20240294593A1", "about": "(Genentech, published 2024)", "binders": {"B1": {"name": "H1.208_L1.1 (XENP32824) (antibody, human IgG1, kappa, V domains shown)", "VH": "EVQLVESGGGLVQPGGSLRLSCAASGFTFSSFGMHWVRQAPGKGLEWVSYISSGSSIIYYADSVKGRFTISRDNAKNSLYLQMNSLRAEDTAVYYCARGGRSVFSPDYWGQGTLVTVSS", "VL": "DIVMTQSPDSLAVSLGERATINCKSSQSLLHSGNQKNYLTWYQQKPGQPPKLLIYWASTRESGVPDRFTGSGSGTDFTLTISSLQAEDVAVYYCQNDYSYPFTFGSGTKLEIKR", "notes": "VH substitution L110S/W112F (Xencor #); L98S/SW100F (Kabat); also called mAb C[PD1]_H1.208_L1.1_IgG1_PVA_/S267K"}, "B2": {"name": "H1.193_L1.1 (XENP32809) (antibody, human IgG1, kappa, V domains shown)", "VH": "B1 VH with S102Q, V103L", "VL": "B1 VL", "notes": "VH substitution L110Q/V111L/W112F (Xencor #); L98Q/V99L/W100F (Kabat); also called mAb C[PD1]_H1.193_L1.1_IgG1_PVA_/S267K"}, "B3": {"name": "H1.194_L1.1 (XENP32810) (antibody, human IgG1, kappa, V domains shown)", "VH": "B1 VH with R101Q, S102L", "VL": "B1 VL", "notes": "VH substitution R109Q/W112F (Xencor #); R97Q/W100F (Kabat); also called mAb C[PD1]_H1.194_L1.1_IgG1_PVA_/S267K"}, "B4": {"name": "H1.210_L1.1 (XENP32826) (antibody, human IgG1, kappa, V domains shown)", "VH": "B1 VH with R101W, S102H", "VL": "B1 VL", "notes": "VH substitution R109W/L110H/W112F (Xencor #); R97W/L98H/W100F (Kabat); also called mAb C[PD1]_H1.210_L1.1_IgG1_PVA_/S267K"}, "B5": {"name": "H1.199_L1.1 (XENP32815) (antibody, human IgG1, kappa, V domains shown)", "VH": "B1 VH with S102L, V103I, P106S", "VL": "B1 VL", "notes": "VH substitution V111I/W112F/P114S (Xencor #); V99I/W100F/P100bS (Kabat); also called mAb C[PD1]_H1.199_L1.1_IgG1_PVA_/S267K"}, "B6": {"name": "H1.195_L1.1 (XENP32811) (antibody, human IgG1, kappa, V domains shown)", "VH": "B1 VH with S102Q", "VL": "B1 VL", "notes": "VH substitution L110Q/W112F (Xencor #); L98Q/W100F (Kabat); also called mAb C[PD1]_H1.195_L1.1_IgG1_PVA_/S267K"}, "B7": {"name": "H1.200_L1.1 (XENP32816) (antibody, human IgG1, kappa, V domains shown)", "VH": "B1 VH with G100H, S102V", "VL": "B1 VL", "notes": "VH substitution G108H/L110V/W112F (Xencor #); G96H/L98V/W100F (Kabat); also called mAb C[PD1]_H1.200_L1.1_IgG1_PVA_/S267K"}, "B8": {"name": "H1.202_L1.1 (XENP32818) (antibody, human IgG1, kappa, V domains shown)", "VH": "B1 VH with S102L, V103Q, S105T", "VL": "B1 VL", "notes": "VH substitution V111Q/W112F/S113T (Xencor #); V99Q/W100F/S100aT (Kabat); also called mAb C[PD1]_H1.202_L1.1_IgG1_PVA_/S267K"}, "B9": {"name": "H1.207_L1.1 (XENP32823) (antibody, human IgG1, kappa, V domains shown)", "VH": "B1 VH with S102L, S105T", "VL": "B1 VL", "notes": "VH substitution W112F/S113T (Xencor #); W100F/S100aT (Kabat); also called mAb C[PD1]_H1.207_L1.1_IgG1_PVA_/S267K"}, "B10": {"name": "H1.197_L1.1 (XENP32813) (antibody, human IgG1, kappa, V domains shown)", "VH": "B1 VH with S102L, V103L", "VL": "B1 VL", "notes": "VH substitution V111L/W112F (Xencor #); V99L/W100F (Kabat); also called mAb C[PD1]_H1.197_L1.1_IgG1_PVA_/S267K"}, "B11": {"name": "H1.212_L1.1 (XENP32828) (antibody, human IgG1, kappa, V domains shown)", "VH": "B1 VH with R101T, S102K", "VL": "B1 VL", "notes": "VH substitution R109T/L110K/W112F (Xencor #); R97T/L98K/W100F (Kabat); also called mAb C[PD1]_H1.212_L1.1_IgG1_PVA_/S267K"}, "B12": {"name": "H1.198_L1.1 (XENP32814) (antibody, human IgG1, kappa, V domains shown)", "VH": "B1 VH with S102L, S105N", "VL": "B1 VL", "notes": "VH substitution W112F/S113N (Xencor #); W100F/S100aN (Kabat); also called mAb C[PD1]_H1.198_L1.1_IgG1_PVA_/S267K"}, "B13": {"name": "H1.205_L1.1 (XENP32821) (antibody, human IgG1, kappa, V domains shown)", "VH": "B1 VH with R101K, S102L, S105A", "VL": "B1 VL", "notes": "VH substitution R109K/W112F/S113A (Xencor #); R97K/W100F/S100aA (Kabat); also called mAb C[PD1]_H1.205_L1.1_IgG1_PVA_/S267K"}, "B14": {"name": "H1.192_L1.1 (XENP32808) (antibody, human IgG1, kappa, V domains shown)", "VH": "B1 VH with S102L, V103L, S105A", "VL": "B1 VL", "notes": "VH substitution V111L/W112F/S113A (Xencor #); V99L/W100F/S100aA (Kabat); also called mAb C[PD1]_H1.192_L1.1_IgG1_PVA_/S267K"}, "B15": {"name": "H1.204_L1.1 (XENP32820) (antibody, human IgG1, kappa, V domains shown)", "VH": "B1 VH with R101Q, S102Q, S105A", "VL": "B1 VL", "notes": "VH substitution R109Q/L110Q/W112F/S113A (Xencor #); R97Q/L98Q/W100F/S100aA (Kabat); also called mAb C[PD1]_H1.204_L1.1_IgG1_PVA_/S267K"}, "B16": {"name": "H1.211_L1.1 (XENP32827) (antibody, human IgG1, kappa, V domains shown)", "VH": "B1 VH with S102L, S105A", "VL": "B1 VL", "notes": "VH substitution W112F/S113A (Xencor #); W100F/S100aA (Kabat); also called mAb C[PD1]_H1.211_L1.1_IgG1_PVA_/S267K"}, "B17": {"name": "H1.206_L1.1 (XENP32822) (antibody, human IgG1, kappa, V domains shown)", "VH": "B1 VH with S102L, F104L", "VL": "B1 VL", "notes": "VH substitution W112L (Xencor #) but W100F in the Kabat column: the two columns disagree; also called mAb C[PD1]_H1.206_L1.1_IgG1_PVA_/S267K"}, "B18": {"name": "H1.196_L1.1 (XENP32812) (antibody, human IgG1, kappa, V domains shown)", "VH": "B1 VH with S102L, V103F", "VL": "B1 VL", "notes": "VH substitution V111F/W112F (Xencor #); V99F/W100F (Kabat); also called mAb C[PD1]_H1.196_L1.1_IgG1_PVA_/S267K"}, "B19": {"name": "H1.209_L1.1 (XENP32825) (antibody, human IgG1, kappa, V domains shown)", "VH": "B1 VH with S102F", "VL": "B1 VL", "notes": "VH substitution L110F/W112F (Xencor #); L98F/W100F (Kabat); also called mAb C[PD1]_H1.209_L1.1_IgG1_PVA_/S267K"}}, "note": "Changes are numbered by the printed parent chain. Names may count otherwise.", "data": [{"biological_target": "T1, human PD-1-His (human, UniProt Q15116 25-167, limits assumed)", "T1 construct": "Antigen of the Octet assays; not shown: His tag", "T1 sequence (Q15116 25-167 limits assumed)": "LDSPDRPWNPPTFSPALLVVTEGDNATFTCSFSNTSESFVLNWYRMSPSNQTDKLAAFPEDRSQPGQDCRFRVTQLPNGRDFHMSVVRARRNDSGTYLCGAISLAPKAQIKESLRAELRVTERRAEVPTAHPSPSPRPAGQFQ", "test": "Octet (BLI), AHC capture of the bivalent mAb, PD-1 in solution", "units": {"koff": "s⁻¹", "kon": "M⁻¹ s⁻¹"}, "values": [{"binder": "B1", "koff": 0.00509, "kon": 77700}, {"binder": "B2", "koff": 0.00391, "kon": 116000}, {"binder": "B3", "koff": 0.00395, "kon": 166000}, {"binder": "B4", "koff": 0.00244, "kon": 154000}, {"binder": "B5", "koff": 0.00155, "kon": 99700}, {"binder": "B6", "koff": 0.00436, "kon": 104000}, {"binder": "B7", "koff": 0.00672, "kon": 336000}, {"binder": "B8", "koff": 0.00239, "kon": 104000}, {"binder": "B9", "koff": 0.00151, "kon": 73600}, {"binder": "B10", "koff": 0.00436, "kon": 123000}, {"binder": "B11", "koff": 0.00469, "kon": 152000}, {"binder": "B12", "koff": 0.00142, "kon": 78000}, {"binder": "B13", "koff": 0.00296, "kon": 111000}, {"binder": "B14", "koff": 0.00317, "kon": 88500}, {"binder": "B15", "koff": 0.00404, "kon": 154000}, {"binder": "B16", "koff": 0.00252, "kon": 133000}, {"binder": "B17", "koff": 0.00505, "kon": 148000}, {"binder": "B18", "koff": 0.00475, "kon": 106000}, {"binder": "B19", "koff": 0.00489, "kon": 173000}]}, {"biological_target": "T1, human PD-1-His", "test": "Octet (BLI), AHC biosensors capture the bivalent mAb, dipped into multiple concentrations of PD-1; KDapp per legend", "units": {"Kd": "nM"}, "values": [{"binder": "B1", "Kd": 65.5}, {"binder": "B2", "Kd": 33.8}, {"binder": "B3", "Kd": 23.7}, {"binder": "B4", "Kd": 15.9}, {"binder": "B5", "Kd": 15.5}, {"binder": "B6", "Kd": 41.9}, {"binder": "B7", "Kd": 20}, {"binder": "B8", "Kd": 23}, {"binder": "B9", "Kd": 20.5}, {"binder": "B10", "Kd": 35.4}, {"binder": "B11", "Kd": 30.8}, {"binder": "B12", "Kd": 18.2}, {"binder": "B13", "Kd": 26.8}, {"binder": "B14", "Kd": 35.8}, {"binder": "B15", "Kd": 26.2}, {"binder": "B16", "Kd": 19}, {"binder": "B17", "Kd": 34.2}, {"binder": "B18", "Kd": 44.8}, {"binder": "B19", "Kd": 28.2}]}]}
